Reference: patent US20220204611A1 (Amgen, published 2022)

T1: human TREM2 (human, UniProt Q9NZC2 19-174, limits assumed)
T1 sequence: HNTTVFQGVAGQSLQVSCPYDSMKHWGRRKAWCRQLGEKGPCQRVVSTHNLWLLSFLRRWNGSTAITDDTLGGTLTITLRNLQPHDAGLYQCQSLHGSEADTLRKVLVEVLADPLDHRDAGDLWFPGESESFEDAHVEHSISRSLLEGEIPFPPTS

B1: V51 (Fab, V domains shown)
VH: EVQLVQSGAEVKKPGESLKISCKGSGYSFTSYWIAWVRQMPGKGLEWMGIIYPGDSDVRYSPSFQGQVTISADKSISTAYLQWSSLKASDTAMYFCARGRTFYYDSSDYFDNWGQGTLVTVSS
VL: DIQMTQSPSSVSASVGDRVTITCRASQGISSWLAWYQQKPGKAPKLLIYAASSRQNGVPSRFSGSGSGTDFTLTISSLQPEDFATYFCQQADSFPRTFGQGTKLEIK
B2: V52 (Fab, V domains shown)
VH: EVQLVQSGAEVKKPGESLKISCKGSGYSFESYWIAWVRQMPGKGLEWMGIIYPGDSDTRYSPSFQGQVTISADKSISTAYLQWSSLKASDTAMYFCARGRTFYYDSSDYFDYWGQGTLVTVSS
VL: DIQMTQSPSSVSASVGDRVTITCRASQGISSWLAWYQQKPGKAPKLLIYAASSLQRGVPSRFSGSGSGTDFTLTISSLQPEDFATYFCQQADRFPRTFGQGTKLEIK
B3: V53 (Fab, V domains shown)
VH: EVQLVQSGAEVKKPGESLKISCKGSGYSFTSYWIAWVRQMPGKGLEWMGIIYPGDSDTRYSPHFQGQVTISADKSISTAYLQWSSLKASDTAMYFCARQRTFYYDSSDYFDYWGQGTLVTVSS
VL: DIQMTQSPSSVSASVGDRVTITCRASQGISSWLAWYQQKPGKAPKLLIYAASSLQNGVPSRFSGSGSGTDFTLTISSLQPEDFATYFCQQADSFPRTFGQGTKLEIK
B4: V60 (Fab, V domains shown)
VH: EVQLVQSGAEVKKPGESLKISCKGSGYHFTSYWIAWVRQMPGKGLEWMGIIYPGDSDVRYSPSFQGQVTISADKSISTAYLQWSSLKASDTAMYFCARQRTFYYDSSDYSDYWGQGTLVTVSS
VL: DIQMTQSPSSVSASVGDRVTITCRASQGISSWLAWYQQKPGKAPKLLIYAASSLQRGVPSRFSGSGSGTDFTLTISSLQPEDFATYFCGQADSFPRTFGQGTKLEIK
B5: V61 (Fab, V domains shown)
VH: EVQLVQSGAEVKKPGESLKISCKGSGYSFSSYWIAWVRQMPGKGLEWMGIIYPGDSDTRYNPSFQGQVTISADKSISTAYLQWSSLKASDTAMYFCARGRTFYYDSSDYFDYWGQGTLVTVSS
VL: DIQMTQSPSSVSASVGDRVTITCRASQGISSWLAWYQQKPGKAPKLLIYAASSLVNGVPSRFSGSGSGTDFTLTISSLQPEDFATYFCQQADSLPRTFGQGTKLEIK
B6: V62 (Fab, V domains shown)
VH: EVQLVQSGAEVKKPGESLKISCKGSGYSFGSYWIAWVRQMPGKGLEWMGIIYPGDSDTRYAPSFQGQVTISADKSISTAYLQWSSLKASDTAMYFCARQRTFYYDSSGYFDYWGQGTLVTVSS
VL: DIQMTQSPSSVSASVGDRVTITCRASQGISSWLAWYQQKPGKAPKLLIYAASSLQRGVPSRFSGSGSGTDFTLTISSLQPEDFATYFCGQADSFPRTFGQGTKLEIK
B7: V63 (Fab, V domains shown)
VH: EVQLVQSGAEVKKPGESLKISCKGSGYSFRSYWIAWVRQMPGKGLEWMGIIYPGDSDTRYSPSFQGQVTISADKSISTAYLQWSSLKASDTAMYFCARSRTFYYDSSDYFDYWGQGTLVTVSS
VL: DIQMTQSPSSVSASVGDRVTITCRASQGISSWLAWYQQKPGKAPKLLIYAASSLQRGVPSRFSGSGSGTDFTLTISSLQPEDFATYFCQQADRFPRTFGQGTKLEIK
B8: V72 (Fab, V domains shown)
VH: EVQLVQSGAEVKKPGESLKISCKGSGYSFTSYWIGWVRQMPGKGLEWMGIIYPGDSDTRYSPSFQGQVTISADKSISTAYLQWSSLKASDTAMYFCARGRTFYYDSSDYFDYWGQGTLVTVSS
VL: DIQMTQSPSSVSASVGDRVTITCRASQGISSWLAWYQQKPGKAPKLLIYAASSLVNGVPSRFSGSGSGTDFTLTISSLQPEDFATYFCQQADSYPRTFGQGTKLEIK
B9: V73 (Fab, V domains shown)
VH: EVQLVQSGAEVKKPGESLKISCKGSGYSFGSYWIAWVRQMPGKGLEWMGIIYPGDSDTRYSPGFQGQVTISADKSISTAYLQWSSLKASDTAMYFCARGRTFYYDSSDYFDYWGQGTLVTVSS
VL: DIQMTQSPSSVSASVGDRVTITCRASQGISSWLAWYQQKPGKAPKLLIYAASSRQNGVPSRFSGSGSGTDFTLTISSLQPEDFATYFCQQADSYPRTFGQGTKLEIK
B10: V74 (Fab, V domains shown)
VH: EVQLVQSGAEVKKPGESLKISCKGSGYSFASYWIAWVRQMPGKGLEWMGIIYPGDSDVRYSPSFQGQVTISADKSISTAYLQWSSLKASDTAMYFCARGRTFYYDSSDYFDYWGQGTLVTVSS
VL: DIQMTQSPSSVSASVGDRVTITCRASQGISSWLAWYQQKPGKAPKLLIYAASSLQLGVPSRFSGSGSGTDFTLTISSLQPEDFATYFCQQADSFPRTFGQGTKLEIK
B11: V75 (Fab, V domains shown)
VH: EVQLVQSGAEVKKPGESLKISCKGSGYSFTSYWIAWVRQMPGKGLEWMGIIYPGDSDTRYSPSFQGQVTISADKSISTAYLQWSSLKASDTAMYFCARGRTFYYDSSDYFDYWGQGTLVTVSS
VL: DIQMTQSPSSVSASVGDRVTITCRASQGISSWLAWYQQKPGKAPKLLIYAASSLQAGVPSRFSGSGSGTDFTLTISSLQPEDFATYFCQQADSYPRTFGQGTKLEIK
B12: V76 (Fab, V domains shown)
VH: EVQLVQSGAEVKKPGESLKISCKGSGYSFGSYWIAWVRQMPGKGLEWMGIIYPGDSDTRYSPEFQGQVTISADKSISTAYLQWSSLKASDTAMYFCARQRTFYYDSSDYSDYWGQGTLVTVSS
VL: DIQMTQSPSSVSASVGDRVTITCRASQGISSWLAWYQQKPGKAPKLLIYAASSLQKGVPSRFSGSGSGRDFTLTISSLQPEDFATYFCQQADSFPRTFGQGTKLEIK
B13: V77 (Fab, V domains shown)
VH: EVQLVQSGAEVKKPGESLKISCKGSGYSFTSYWIAWVRQMPGKGLEWMGIIYPGDSDTRYSPSFQGQVTISADKSISTAYLQWSSLKASDTAMYFCARQRTFYYDSSDYFDYWGQGTLVTVSS
VL: DIQMTQSPSSVSASVGDRVTITCRASQGISSWLAWYQQKPGKAPKLLIYAASSRQNGVPSRFSGSGSGTDFTLTISSLQPEDFATYFCQQADSFPRTFGQGTKLEIK

What was measured:
[1] = molecular target: T1, human TREM2; assay: yeast-displayed Fab FACS, 2nd screen 10 nM
[2] = molecular target: T1, human TREM2; assay: yeast-displayed Fab FACS, 1st screen 10 nM
[3] = molecular target: T1, human TREM2; assay: yeast-displayed Fab FACS, 2nd screen 2 nM

Binder	binding signal fold over 6E7 parental [1]	binding signal fold over 6E7 parental [2]	binding signal fold over 6E7 parental [3]
B1	3.18 fold	2.81 fold	1.83 fold
B2	3.09 fold	3 fold	1.78 fold
B3	1.17 fold	1.25 fold	0.66 fold
B4	3.63 fold	3.26 fold	3.35 fold
B5	5.22 fold	5.08 fold	3.63 fold
B6	2.89 fold	2.49 fold	1.87 fold
B7	3.71 fold	3.76 fold	4.91 fold
B8	4.01 fold	3.64 fold	2.5 fold
B9	5.44 fold	5.12 fold	4.17 fold
B10	4.01 fold	3.94 fold	2.54 fold
B11	4.52 fold	4.64 fold	3.74 fold
B12	4.93 fold	4.57 fold	4.34 fold
B13	1.38 fold	1.43 fold	0.83 fold
